Measurements: US20250376520A1 (SINGAPORE HEALTH SERVICES PTE, published 2025)

Target: human TRPM4 (transient receptor potential melastatin 4) channel, myc-tagged, expressed in HEK 293 cells (human, UniProt Q8TD43 1-1214)
Assay: cell-based or functional assay

Chain of human TRPM4 (transient receptor potential melastatin 4) channel, myc-tagged, expressed in HEK 293 cells (Q8TD43 whole entry): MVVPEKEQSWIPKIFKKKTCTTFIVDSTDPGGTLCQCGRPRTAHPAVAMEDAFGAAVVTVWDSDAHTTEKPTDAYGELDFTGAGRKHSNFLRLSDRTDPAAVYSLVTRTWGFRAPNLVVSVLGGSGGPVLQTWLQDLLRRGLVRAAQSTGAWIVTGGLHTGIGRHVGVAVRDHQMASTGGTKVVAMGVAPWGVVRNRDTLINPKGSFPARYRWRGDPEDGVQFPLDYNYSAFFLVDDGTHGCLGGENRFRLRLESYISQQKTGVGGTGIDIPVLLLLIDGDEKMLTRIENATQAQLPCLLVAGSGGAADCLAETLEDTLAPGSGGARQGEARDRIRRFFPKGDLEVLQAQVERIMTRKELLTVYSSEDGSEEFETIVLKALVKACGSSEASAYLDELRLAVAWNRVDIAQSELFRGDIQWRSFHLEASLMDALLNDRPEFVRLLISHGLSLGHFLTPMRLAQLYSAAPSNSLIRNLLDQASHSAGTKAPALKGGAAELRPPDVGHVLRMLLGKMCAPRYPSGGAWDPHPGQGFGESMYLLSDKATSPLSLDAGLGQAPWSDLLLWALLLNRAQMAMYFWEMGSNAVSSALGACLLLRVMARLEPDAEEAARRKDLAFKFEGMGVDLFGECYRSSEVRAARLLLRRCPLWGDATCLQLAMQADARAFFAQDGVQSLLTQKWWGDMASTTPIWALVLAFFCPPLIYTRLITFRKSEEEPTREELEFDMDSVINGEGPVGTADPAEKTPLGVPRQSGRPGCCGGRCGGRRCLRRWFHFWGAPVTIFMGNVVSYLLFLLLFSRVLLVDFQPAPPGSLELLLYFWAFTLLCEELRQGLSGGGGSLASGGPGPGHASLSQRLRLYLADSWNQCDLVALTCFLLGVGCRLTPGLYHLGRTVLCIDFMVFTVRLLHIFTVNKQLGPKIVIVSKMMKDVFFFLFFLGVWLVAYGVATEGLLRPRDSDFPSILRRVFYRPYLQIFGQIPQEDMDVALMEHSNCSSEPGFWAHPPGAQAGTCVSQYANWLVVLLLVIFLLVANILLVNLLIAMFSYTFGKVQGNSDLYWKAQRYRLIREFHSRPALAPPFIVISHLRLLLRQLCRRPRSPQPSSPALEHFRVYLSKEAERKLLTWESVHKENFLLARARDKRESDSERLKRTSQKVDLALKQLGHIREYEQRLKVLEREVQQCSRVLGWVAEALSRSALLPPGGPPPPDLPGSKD

B1: humanized anti-TRPM4 antibody clone A6 (VH2 + VL1), renamed M4H (antibody, human IgG1, kappa, V domains shown)
VH: QVQLQESGPGLVKPSQTLSLTCTVSGYSITSDYAWNWIRQHPGKGLEWMGYLSYSGVTSYNPSLKGRVTISRDTSKNQFSLKLSSVTAADTAVYYCARKGTYYRYEGSYWYFDVWGQGTTVTVSS
VL: DIQMTQSPSSLSASVGDRVTITCHANQNIDVWLSWYQQKPGKAPKLLIYKTSNLHTGVPSRFSGSGSGTDFTFTISSLQPEDIATYYCQQGQSYPLTFGGGTKLEIKR
  IC50, dose-dependent inhibition of hypoxia-induced TRPM4 current increase: 1.04 µg/mL
